Experimental findings from PMC5916898, “Global profiling of protein–DNA and protein–nucleosome binding affinities using quantitative mass spectrometry” are described below.

One data set concerns the target T1, ZBTB10 (Homo sapiens, UniProt Q96DT7).
T1 sequence: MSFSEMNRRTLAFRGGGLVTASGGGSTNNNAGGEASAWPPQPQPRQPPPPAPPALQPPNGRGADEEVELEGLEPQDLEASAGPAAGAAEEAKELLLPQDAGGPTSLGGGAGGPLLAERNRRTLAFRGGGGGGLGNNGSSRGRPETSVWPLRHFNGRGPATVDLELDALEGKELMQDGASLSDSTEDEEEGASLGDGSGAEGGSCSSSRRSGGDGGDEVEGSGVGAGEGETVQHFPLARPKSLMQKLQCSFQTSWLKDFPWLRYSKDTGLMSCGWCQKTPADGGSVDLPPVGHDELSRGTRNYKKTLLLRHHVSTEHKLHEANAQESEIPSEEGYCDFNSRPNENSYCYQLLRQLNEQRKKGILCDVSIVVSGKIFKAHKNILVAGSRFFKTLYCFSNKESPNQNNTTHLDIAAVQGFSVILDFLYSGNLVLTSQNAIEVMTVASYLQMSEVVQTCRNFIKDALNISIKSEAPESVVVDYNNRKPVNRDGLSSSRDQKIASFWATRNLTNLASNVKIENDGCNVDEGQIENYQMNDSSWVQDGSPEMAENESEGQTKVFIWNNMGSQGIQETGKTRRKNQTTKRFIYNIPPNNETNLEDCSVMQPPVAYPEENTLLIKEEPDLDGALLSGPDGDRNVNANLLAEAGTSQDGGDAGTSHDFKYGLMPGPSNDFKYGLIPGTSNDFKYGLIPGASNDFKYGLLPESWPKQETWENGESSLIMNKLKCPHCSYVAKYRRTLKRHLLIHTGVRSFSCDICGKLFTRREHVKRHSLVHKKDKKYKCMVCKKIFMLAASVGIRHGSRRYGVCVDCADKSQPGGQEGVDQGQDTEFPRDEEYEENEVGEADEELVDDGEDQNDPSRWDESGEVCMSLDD
In words: pulldown; 150 mM NaCl, 50 mM Tris pH 8, 0.25% NP-40, 1 mM TCEP; 4 C, 2 h; 100 ug HeLa nuclear lysate. To be noted: protein: extract; label: 5' biotin (strand 1).

A further data set has as its target SMAD4 (Homo sapiens, UniProt Q13485). Described as above. To be noted: protein: extract; label: 5' biotin (strand 1).
The target of another data set is YY1 (Homo sapiens, UniProt P25490). The description is as above. To be noted: protein: extract; label: 5' biotin (strand 1).
A further data set concerns the target KLF4 (Homo sapiens, UniProt O43474). The data set is described as follows: competition; 150 mM NaCl, 50 mM Tris pH 8, 0.25% NP-40, 1 mM TCEP; 4 C, 2 h; 100 ug HeLa nuclear lysate; free competitor against 200 nM immobilised SP/KLF wild-type. The conditions noted are these: protein: extract.
For another data set, the target named is SP3 (Homo sapiens, UniProt Q02447). The description is as above. To be noted: protein: extract.
A further data set deals with KLF3 (Homo sapiens, UniProt P57682). The description is as above. The conditions noted are these: protein: extract.
The target in another data set is SP4 (Homo sapiens, UniProt Q02446). Described as above. To be noted: protein: extract.
Another data set concerns the target KLF13 (Homo sapiens, UniProt Q9Y2Y9). Described as above. The conditions noted are these: protein: extract.
A further data set concerns the target T2, ZNF148 (Homo sapiens, UniProt Q9UQR1).
T2 sequence: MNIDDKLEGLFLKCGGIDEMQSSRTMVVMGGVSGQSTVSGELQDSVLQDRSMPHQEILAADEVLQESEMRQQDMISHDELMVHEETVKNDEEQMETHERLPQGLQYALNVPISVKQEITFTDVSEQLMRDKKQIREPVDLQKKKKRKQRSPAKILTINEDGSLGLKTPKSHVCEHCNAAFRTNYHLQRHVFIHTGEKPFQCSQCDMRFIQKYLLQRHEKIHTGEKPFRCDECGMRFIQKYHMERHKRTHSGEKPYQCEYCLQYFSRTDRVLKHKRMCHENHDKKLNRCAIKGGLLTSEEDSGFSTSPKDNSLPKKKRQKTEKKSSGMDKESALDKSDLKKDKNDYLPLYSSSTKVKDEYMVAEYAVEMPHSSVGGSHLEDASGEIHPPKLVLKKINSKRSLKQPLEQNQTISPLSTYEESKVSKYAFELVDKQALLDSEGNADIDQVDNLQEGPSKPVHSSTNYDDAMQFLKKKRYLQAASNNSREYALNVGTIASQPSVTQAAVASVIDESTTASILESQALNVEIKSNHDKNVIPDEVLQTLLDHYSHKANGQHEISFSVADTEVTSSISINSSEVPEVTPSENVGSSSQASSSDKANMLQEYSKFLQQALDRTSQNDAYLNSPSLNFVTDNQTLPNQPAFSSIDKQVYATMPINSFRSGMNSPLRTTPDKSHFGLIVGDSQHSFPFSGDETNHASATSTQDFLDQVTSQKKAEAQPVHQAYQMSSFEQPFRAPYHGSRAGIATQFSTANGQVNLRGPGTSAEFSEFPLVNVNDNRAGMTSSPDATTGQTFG
Described as above. To be noted: protein: extract.

In the next data set the target is NFAT5 (Homo sapiens, UniProt O94916). The data set is described as follows: pulldown; 150 mM NaCl, 50 mM Tris pH 8, 0.25% NP-40, 1 mM TCEP; 4 C, 2 h; 100 ug HeLa nuclear lysate. To be noted: protein: extract; label: 5' biotin (strand 1).
Another data set concerns the target TEAD4 (Homo sapiens, UniProt Q15561). The data set is described as above. The conditions noted are these: protein: extract; label: 5' biotin (strand 1).

Sequence of SP4 (Q02446 whole entry): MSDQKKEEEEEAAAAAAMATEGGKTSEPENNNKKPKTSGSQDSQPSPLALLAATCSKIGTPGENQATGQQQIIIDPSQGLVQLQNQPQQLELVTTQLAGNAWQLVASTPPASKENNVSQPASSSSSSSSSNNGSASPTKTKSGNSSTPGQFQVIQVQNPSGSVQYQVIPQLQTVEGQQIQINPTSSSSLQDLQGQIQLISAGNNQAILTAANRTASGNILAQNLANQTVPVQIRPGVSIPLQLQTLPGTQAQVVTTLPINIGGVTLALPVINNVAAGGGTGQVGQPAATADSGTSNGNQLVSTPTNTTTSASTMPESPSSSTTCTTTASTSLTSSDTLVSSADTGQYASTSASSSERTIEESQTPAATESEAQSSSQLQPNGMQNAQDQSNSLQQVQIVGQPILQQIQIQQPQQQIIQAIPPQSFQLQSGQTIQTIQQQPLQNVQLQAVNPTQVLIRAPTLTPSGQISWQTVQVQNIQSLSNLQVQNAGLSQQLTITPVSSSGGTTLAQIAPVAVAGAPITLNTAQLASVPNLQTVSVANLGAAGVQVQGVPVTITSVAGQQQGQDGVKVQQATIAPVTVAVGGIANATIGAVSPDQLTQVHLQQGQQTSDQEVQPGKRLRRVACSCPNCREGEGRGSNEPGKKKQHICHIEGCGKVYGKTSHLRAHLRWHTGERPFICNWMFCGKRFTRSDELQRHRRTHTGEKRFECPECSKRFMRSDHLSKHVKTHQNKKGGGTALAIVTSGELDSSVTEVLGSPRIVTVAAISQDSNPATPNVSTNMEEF
Sequence of TEAD4 (Q15561 whole entry): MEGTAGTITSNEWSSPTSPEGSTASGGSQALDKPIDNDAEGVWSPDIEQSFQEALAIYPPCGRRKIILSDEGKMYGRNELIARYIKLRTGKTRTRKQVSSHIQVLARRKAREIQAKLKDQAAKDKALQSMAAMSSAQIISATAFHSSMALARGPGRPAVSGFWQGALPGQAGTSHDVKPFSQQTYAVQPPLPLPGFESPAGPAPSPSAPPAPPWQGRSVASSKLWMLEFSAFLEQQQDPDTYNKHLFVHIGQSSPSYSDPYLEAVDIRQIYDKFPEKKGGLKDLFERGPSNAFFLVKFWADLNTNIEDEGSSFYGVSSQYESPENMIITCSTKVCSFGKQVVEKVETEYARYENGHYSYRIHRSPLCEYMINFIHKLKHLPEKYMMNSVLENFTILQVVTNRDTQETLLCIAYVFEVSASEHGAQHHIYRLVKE
Sequence of NFAT5 (O94916 whole entry): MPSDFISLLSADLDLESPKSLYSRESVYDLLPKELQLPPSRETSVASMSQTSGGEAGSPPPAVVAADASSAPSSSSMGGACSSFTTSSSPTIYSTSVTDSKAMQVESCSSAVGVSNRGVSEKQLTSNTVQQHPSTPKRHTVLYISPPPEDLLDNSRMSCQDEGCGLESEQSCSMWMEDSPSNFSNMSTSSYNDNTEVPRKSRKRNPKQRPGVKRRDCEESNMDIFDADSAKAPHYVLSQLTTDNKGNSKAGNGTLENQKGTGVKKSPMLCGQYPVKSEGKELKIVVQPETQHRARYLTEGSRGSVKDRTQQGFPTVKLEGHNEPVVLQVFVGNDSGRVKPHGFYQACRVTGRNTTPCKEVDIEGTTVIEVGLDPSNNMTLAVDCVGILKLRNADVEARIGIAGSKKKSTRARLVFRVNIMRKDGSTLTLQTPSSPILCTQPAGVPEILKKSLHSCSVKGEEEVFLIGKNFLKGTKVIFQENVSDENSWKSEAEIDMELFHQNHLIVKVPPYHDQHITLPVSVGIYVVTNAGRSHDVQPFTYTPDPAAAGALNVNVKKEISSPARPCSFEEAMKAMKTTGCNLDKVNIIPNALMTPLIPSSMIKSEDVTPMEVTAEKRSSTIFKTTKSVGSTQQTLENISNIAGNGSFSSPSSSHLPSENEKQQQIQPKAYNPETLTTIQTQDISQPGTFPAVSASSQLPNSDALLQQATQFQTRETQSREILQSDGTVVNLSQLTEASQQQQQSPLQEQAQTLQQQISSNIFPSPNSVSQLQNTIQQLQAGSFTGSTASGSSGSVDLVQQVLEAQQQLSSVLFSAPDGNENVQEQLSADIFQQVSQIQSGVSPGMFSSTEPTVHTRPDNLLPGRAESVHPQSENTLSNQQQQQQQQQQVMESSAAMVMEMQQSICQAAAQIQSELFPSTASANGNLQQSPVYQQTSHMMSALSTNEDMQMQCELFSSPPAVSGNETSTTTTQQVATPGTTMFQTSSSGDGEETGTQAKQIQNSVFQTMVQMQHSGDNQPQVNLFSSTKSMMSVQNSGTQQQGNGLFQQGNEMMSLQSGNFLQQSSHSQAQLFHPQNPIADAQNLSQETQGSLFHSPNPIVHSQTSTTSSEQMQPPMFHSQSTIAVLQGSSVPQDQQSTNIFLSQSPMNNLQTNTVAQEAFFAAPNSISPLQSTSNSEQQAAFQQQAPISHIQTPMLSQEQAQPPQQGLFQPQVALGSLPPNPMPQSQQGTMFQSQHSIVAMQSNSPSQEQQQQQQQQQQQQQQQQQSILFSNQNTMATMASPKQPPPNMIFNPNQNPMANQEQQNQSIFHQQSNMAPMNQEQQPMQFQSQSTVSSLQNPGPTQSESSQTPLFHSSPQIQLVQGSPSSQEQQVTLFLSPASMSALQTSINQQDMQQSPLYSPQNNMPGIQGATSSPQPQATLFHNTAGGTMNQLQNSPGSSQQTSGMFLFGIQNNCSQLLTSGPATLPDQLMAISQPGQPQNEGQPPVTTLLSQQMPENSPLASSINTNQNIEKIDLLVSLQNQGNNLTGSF
Sequence of KLF3 (P57682 whole entry): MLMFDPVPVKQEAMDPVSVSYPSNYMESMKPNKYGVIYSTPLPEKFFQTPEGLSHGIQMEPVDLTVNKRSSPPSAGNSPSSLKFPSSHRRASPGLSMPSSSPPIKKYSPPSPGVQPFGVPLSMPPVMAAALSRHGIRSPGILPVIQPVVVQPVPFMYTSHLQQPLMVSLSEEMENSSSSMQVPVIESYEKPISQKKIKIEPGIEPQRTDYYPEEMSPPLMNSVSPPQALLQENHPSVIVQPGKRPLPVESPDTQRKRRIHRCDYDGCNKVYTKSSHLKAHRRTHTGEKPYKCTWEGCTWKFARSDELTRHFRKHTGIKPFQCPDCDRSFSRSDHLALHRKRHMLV
Sequence of KLF13 (Q9Y2Y9 whole entry): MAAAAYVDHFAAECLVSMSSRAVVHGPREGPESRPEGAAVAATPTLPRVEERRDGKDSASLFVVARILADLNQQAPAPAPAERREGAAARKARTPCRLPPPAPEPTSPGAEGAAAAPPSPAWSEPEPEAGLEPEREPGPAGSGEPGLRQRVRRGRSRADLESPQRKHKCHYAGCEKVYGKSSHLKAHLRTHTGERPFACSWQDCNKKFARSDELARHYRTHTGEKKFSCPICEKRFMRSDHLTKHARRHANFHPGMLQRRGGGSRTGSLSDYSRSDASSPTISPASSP
Sequence of SMAD4 (Q13485 whole entry): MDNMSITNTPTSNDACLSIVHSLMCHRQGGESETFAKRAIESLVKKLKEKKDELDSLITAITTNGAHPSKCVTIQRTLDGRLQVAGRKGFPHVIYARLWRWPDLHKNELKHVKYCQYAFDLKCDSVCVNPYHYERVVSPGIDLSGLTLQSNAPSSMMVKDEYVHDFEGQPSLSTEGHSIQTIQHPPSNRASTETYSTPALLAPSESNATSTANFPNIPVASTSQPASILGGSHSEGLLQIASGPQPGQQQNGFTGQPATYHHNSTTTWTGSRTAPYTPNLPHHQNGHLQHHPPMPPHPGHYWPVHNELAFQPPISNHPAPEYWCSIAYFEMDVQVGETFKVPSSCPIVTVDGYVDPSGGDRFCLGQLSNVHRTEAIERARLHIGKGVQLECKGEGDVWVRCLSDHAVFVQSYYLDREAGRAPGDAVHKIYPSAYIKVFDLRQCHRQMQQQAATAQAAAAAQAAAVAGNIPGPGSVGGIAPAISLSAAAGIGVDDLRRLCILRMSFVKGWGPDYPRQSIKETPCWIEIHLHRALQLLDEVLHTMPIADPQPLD
Sequence of KLF4 (O43474 whole entry): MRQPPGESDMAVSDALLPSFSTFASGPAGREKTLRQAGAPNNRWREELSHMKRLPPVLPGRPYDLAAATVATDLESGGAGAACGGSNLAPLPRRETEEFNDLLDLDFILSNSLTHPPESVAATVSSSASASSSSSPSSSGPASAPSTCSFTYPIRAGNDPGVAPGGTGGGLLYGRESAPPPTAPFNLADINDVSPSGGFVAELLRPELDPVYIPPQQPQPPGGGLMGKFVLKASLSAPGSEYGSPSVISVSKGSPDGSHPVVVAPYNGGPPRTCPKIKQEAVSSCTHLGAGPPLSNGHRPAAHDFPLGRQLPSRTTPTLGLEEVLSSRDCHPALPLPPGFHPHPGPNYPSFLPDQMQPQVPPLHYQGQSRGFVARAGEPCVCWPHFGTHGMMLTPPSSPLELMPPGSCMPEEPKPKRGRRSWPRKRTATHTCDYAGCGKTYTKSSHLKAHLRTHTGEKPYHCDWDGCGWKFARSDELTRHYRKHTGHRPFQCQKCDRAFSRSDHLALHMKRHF
Sequence of YY1 (P25490 whole entry): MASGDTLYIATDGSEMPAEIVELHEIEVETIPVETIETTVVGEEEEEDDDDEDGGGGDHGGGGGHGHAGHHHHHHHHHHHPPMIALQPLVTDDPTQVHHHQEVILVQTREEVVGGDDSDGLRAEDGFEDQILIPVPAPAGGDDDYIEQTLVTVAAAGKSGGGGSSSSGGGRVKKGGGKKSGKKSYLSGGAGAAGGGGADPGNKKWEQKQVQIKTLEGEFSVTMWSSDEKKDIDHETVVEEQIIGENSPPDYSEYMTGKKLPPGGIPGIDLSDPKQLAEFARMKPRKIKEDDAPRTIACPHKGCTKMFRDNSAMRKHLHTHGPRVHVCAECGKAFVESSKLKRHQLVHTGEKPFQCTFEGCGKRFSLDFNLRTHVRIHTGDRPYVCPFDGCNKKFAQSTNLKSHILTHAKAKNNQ

B1: CTCF (dsDNA)
DNA 1: TCAGAGTGGCGGCCAGCAGGGGGCGCCCTTGCCAGA
DNA 2: TCTGGCAAGGGCGCCCCCTGCTGGCCGCCACTCTGA
With B1, the “apparent K (half saturation)” value with ZBTB10 was determined as 40.4 nM; with SMAD4, 153 nM; with YY1, 400 nM.

B2: SP/KLF wild-type (dsDNA)
DNA 1: GAGAGCCCCGCCCCCTGGCT
DNA 2: AGCCAGGGGGCGGGGCTCTC
On to B2, for which the half-maximal inhibitory concentration (IC50) stood at 229 nM with KLF4; 147 nM in the data set with SP3; 112 nM in the data set with KLF3; 87.5 nM in the data set with SP4; 86.2 nM with KLF13; 164 nM with ZNF148.

B3: TEAD (dsDNA)
DNA 1: TCGGGACCCAGGCCTGGAATGTTTCCACC
DNA 2: GGTGGAAACATTCCAGGCCTGGGTCCCGA
For the molecule B3, the “apparent K (half saturation)” value in the data set with NFAT5 was found to be 94.6 nM; with TEAD4 it was 15.3 nM.

In general, IC50 refers to the concentration that gives 50% inhibition. A lower IC50 goes with greater potency.
